1 substance from US20240288440A1 can be followed below.

In assay [1] the target is chimeric secretory component (CSC) of the polymeric immunoglobulin receptor (rabbit (domain 1) and human (domains 2 to 5)).
Assay [2] addresses receptor binding domain (RBD) of the SARS COV-2 spike protein (amino acids 332-532) (SARS-COV-2) (UniProt P0DTC2).

Sequence of chimeric secretory component (CSC) of the polymeric immunoglobulin receptor (rabbit (domain 1) and human (domains 2 to 5)) (P01833 other isoform, or with tags, fused parts or gaps mutant): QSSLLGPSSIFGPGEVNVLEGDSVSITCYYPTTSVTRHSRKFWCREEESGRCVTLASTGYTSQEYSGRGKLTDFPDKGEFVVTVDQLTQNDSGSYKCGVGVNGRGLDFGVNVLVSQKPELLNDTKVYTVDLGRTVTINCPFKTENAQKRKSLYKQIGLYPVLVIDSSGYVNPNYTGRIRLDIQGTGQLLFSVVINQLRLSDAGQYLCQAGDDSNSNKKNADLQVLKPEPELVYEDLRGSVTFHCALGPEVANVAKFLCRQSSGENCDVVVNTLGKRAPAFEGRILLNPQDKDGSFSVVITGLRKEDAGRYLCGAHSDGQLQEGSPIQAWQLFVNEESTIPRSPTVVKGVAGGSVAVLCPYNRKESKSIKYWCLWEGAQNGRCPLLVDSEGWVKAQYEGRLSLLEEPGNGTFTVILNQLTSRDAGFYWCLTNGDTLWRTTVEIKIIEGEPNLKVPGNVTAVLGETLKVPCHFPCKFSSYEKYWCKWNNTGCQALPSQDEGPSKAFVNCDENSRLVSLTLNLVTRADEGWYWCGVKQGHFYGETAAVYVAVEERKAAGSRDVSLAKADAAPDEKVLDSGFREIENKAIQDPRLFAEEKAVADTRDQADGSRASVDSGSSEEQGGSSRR

“CB6-IgG (SARS-COV-2 specific monoclonal antibody CB6, IgG form)”: the limit of detection in assay [1] was above 100 µg/mL; in assay [2], 5 µg/mL.
